Experiments:
[1] = biological target: Myc-tagged extracellular domain of NKp46 (human) (UniProt O76036); assay: MST
[2] = biological target: recombinant NKp46 (Raman spectroscopy) (UniProt O76036); assay: Raman spectroscopy

Chain of UniProt O76036 (O76036 22-258): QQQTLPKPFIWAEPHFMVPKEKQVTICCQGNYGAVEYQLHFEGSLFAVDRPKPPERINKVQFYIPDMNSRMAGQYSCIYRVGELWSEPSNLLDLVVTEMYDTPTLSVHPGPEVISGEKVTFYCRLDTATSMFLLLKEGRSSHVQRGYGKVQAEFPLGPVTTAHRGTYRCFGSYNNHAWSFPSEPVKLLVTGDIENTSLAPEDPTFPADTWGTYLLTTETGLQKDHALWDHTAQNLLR

CRT P domain fused at the C-terminus to the Fc domain of human Ig (Fc fusion)
Kd [1]: 41.2 µM

recombinant CRT (Raman spectroscopy) (from UniProt P27797 18-417) (natural protein)
Kd [2]: 9.95 µM

— publication doi:10.1101/2021.10.31.466654
